Residue numbers refer to the chain shown, from its start. Names and notes keep the numbering of the source.
T1: PUF4 RNA-binding domain (Saccharomyces cerevisiae, UniProt P25339 537-888)
T1 sequence: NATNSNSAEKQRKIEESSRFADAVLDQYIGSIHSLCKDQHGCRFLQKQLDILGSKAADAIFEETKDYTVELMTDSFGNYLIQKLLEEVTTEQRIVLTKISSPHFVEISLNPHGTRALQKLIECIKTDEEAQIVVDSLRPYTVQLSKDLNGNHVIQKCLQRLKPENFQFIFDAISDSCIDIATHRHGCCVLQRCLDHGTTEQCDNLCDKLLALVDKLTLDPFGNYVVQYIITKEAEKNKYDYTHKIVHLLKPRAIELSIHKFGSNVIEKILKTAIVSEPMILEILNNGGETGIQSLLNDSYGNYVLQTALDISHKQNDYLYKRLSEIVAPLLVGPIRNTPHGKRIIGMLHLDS

B1: Id_ii_S2_P3E.2_K3.1_C3.2_[T-1A]_H3.1_A3.1_F3.1_T3.2_[T9A]_[A10T] (ssRNA)
RNA: UUUGAUUAAUAUGAUAUCGUUCUUUCUCAUGUAUAUAAUUUCUUUCUCGAUAUCAUAUUAAUCUUU
B2: Id_ii_S2_P3E.3_K3.2_C3.2_[C-2T]_H3.2_A3.1_F3.1_T3.2_[T9G]_[A10C] (ssRNA)
RNA: B1 RNA with C28U, A29U, G31A, A38G, U39C
B3: Id_ii_S2_P3E.3_K3.2_C3.2_[C-2T]_[T-1C]_H3.2_A3.1_F3.1_T3.2_[T9C]_[A10G] (ssRNA)
RNA: B1 RNA with C28U, A29C, G31A, A38C, U39G
B4: Id_ii_S2_P3E.3_K3.2_C3.2_[C-2T]_[T-1G]_H3.2_A3.1_F3.1_T3.2_[T9G]_[A10T] (ssRNA)
RNA: B1 RNA with C28U, A29G, G31A, A38G
B5: Id_ii_S2_P3E.3_K3.2_C3.2_[C-2T]_[T-1A]_H3.2_A3.1_F3.1_T3.2_[T9C]_[A10C] (ssRNA)
RNA: B1 RNA with C28U, G31A, A38C, U39C
B6: Id_ii_S2_P3E.3_K3.2_C3.2_[C-2G]_H3.2_A3.1_F3.1_T3.2_[A10C] (ssRNA)
RNA: B1 RNA with C28G, A29U, G31A, A38U, U39C
B7: Id_ii_S2_P3E.3_K3.2_C3.2_[C-2T]_[T-1G]_H3.2_A3.1_F3.1_T3.2_[A10G] (ssRNA)
RNA: B1 RNA with C28U, A29G, G31A, A38U, U39G
B8: Id_ii_S2_P3E.3_K3.2_C3.2_[C-2G]_[T-1G]_H3.2_A3.1_F3.1_T3.2_[T9A]_[A10C] (ssRNA)
RNA: B1 RNA with C28G, A29G, G31A, U39C
B9: Id_ii_S2_P3E.3_K3.2_C3.2_[C-2T]_[T-1C]_H3.2_A3.1_F3.1_T3.2_[A10T] (ssRNA)
RNA: B1 RNA with C28U, A29C, G31A, A38U
B10: Id_ii_S2_P3E.3_K3.2_C3.2_[C-2T]_[T-1C]_H3.2_A3.1_F3.1_T3.2_[T9A]_[A10T] (ssRNA)
RNA: B1 RNA with C28U, A29C, G31A
B11: Id_ii_S2_P3E.3_K3.2_C3.2_[C-2G]_H3.2_A3.1_F3.1_T3.2_[T9A]_[A10T] (ssRNA)
RNA: B1 RNA with C28G, A29U, G31A
B12: Id_ii_S2_P3E.2_K3.1_C3.2_H3.1_A3.1_F3.1_T3.2_[T9G]_[A10C] (ssRNA)
RNA: B1 RNA with A29U, A38G, U39C
B13: Id_ii_S2_P3E.2_K3.1_C3.2_[T-1A]_H3.1_A3.1_F3.1_T3.2 (ssRNA)
RNA: B1 RNA with A38U, U39A
B14: Id_ii_S2_P3E.3_K3.2_C3.2_[C-2T]_[T-1C]_H3.2_A3.1_F3.1_T3.2_[T9C] (ssRNA)
RNA: B1 RNA with C28U, A29C, G31A, A38C, U39A
B15: Id_ii_S2_P3E.3_K3.2_C3.2_[C-2T]_[T-1C]_H3.2_A3.1_F3.1_T3.2_[T9G]_[A10C] (ssRNA)
RNA: B1 RNA with C28U, A29C, G31A, A38G, U39C
B16: Id_ii_S2_P3E.2_K3.1_C3.2_[T-1A]_H3.1_A3.1_F3.1_T3.2_[T9A] (ssRNA)
RNA: B1 RNA with U39A
B17: Id_ii_S2_P3E.3_K3.2_C3.2_[C-2T]_[T-1G]_H3.2_A3.1_F3.1_T3.2_[T9A] (ssRNA)
RNA: B1 RNA with C28U, A29G, G31A, U39A
B18: Id_ii_S2_P3E.3_K3.2_C3.2_[C-2T]_[T-1G]_H3.2_A3.1_F3.1_T3.2_[A10C] (ssRNA)
RNA: B1 RNA with C28U, A29G, G31A, A38U, U39C
B19: Id_ii_S2_P3E.3_K3.2_C3.2_[C-2G]_[T-1G]_H3.2_A3.1_F3.1_T3.2_[A10T] (ssRNA)
RNA: B1 RNA with C28G, A29G, G31A, A38U
B20: Id_ii_S2_P3E.3_K3.2_C3.2_[C-2G]_H3.2_A3.1_F3.1_T3.2_[T9C]_[A10C] (ssRNA)
RNA: B1 RNA with C28G, A29U, G31A, A38C, U39C
B21: Id_ii_S2_P3E.3_K3.2_C3.2_[C-2T]_[T-1A]_H3.2_A3.1_F3.1_T3.2_[A10G] (ssRNA)
RNA: B1 RNA with C28U, G31A, A38U, U39G
B22: Id_ii_S2_P3E.2_K3.1_C3.2_H3.1_A3.1_F3.1_T3.2_[T9G]_[A10T] (ssRNA)
RNA: B1 RNA with A29U, A38G
B23: If_S2_P3E.2_K3.1_C3.2_H3.1_A3.1_F3.1_T3.2 (ssRNA)
RNA: B1 RNA with A29U, A38U, U39A
B24: Id_ii_S2_P3E.3_K3.2_C3.2_[C-2T]_H3.2_A3.1_F3.1_T3.2_[T9C]_[A10C] (ssRNA)
RNA: B1 RNA with C28U, A29U, G31A, A38C, U39C
B25: Id_ii_S2_P3E.3_K3.2_C3.2_[C-2G]_[T-1C]_H3.2_A3.1_F3.1_T3.2_[T9C]_[A10C] (ssRNA)
RNA: B1 RNA with C28G, A29C, G31A, A38C, U39C
B26: Id_ii_S2_P3E.2_K3.1_C3.2_H3.1_A3.1_F3.1_T3.2_[T9A]_[A10T] (ssRNA)
RNA: B1 RNA with A29U
B27: Id_ii_S2_P3E.3_K3.2_C3.2_[C-2T]_[T-1A]_H3.2_A3.1_F3.1_T3.2_[T9C]_[A10T] (ssRNA)
RNA: B1 RNA with C28U, G31A, A38C
B28: Id_ii_S2_P3E.3_K3.2_C3.2_[C-2T]_[T-1G]_H3.2_A3.1_F3.1_T3.2_[T9A]_[A10T] (ssRNA)
RNA: B1 RNA with C28U, A29G, G31A
B29: Id_ii_S2_P3E.3_K3.2_C3.2_[C-2G]_[T-1G]_H3.2_A3.1_F3.1_T3.2_[T9A] (ssRNA)
RNA: B1 RNA with C28G, A29G, G31A, U39A

Molecular target: T1, PUF4 RNA-binding domain
Experiment: Mg; RNA-MaP; 20 mM Na-HEPES pH 7.4, 30 mM KOAc, 0.75 mM MgCl2, 0.1% Tween-20, 5% glycerol, 0.1 mg/mL BSA, 2 mM DTT; 25 C; 0.0125-409.6 nM protein
Settings: tags: N-His6-TEV cleaved; C-SNAP kept, Cy3B-labelled; label: tethered on chip by stalled RNA polymerase

Row | Binder | Kd [nM]
1 | B1 | 2.96
2 | B2 | 277
3 | B3 | 536
4 | B4 | 3.83
5 | B5 | 63.8
6 | B6 | 15.1
7 | B7 | 1.52
8 | B8 | 1450
9 | B9 | 68.1
10 | B10 | 147
11 | B11 | 36.2
12 | B12 | 2.46
13 | B13 | 1.35
14 | B14 | 175
15 | B15 | 393
16 | B16 | 3.89
17 | B17 | 2.25
18 | B18 | 1.72
19 | B19 | 137
20 | B20 | 31.2
21 | B21 | 554
22 | B22 | 4.32
23 | B23 | 1.16
24 | B24 | 191
25 | B25 | 329
26 | B26 | 1.9
27 | B27 | 45.6
28 | B28 | 1.67
29 | B29 | 872

— publication PMC9352680, “A comprehensive thermodynamic model for RNA binding by the Saccharomyces cerevisiae Pumilio protein PUF4”
